Measured values from patent US20190194300A1.
Numbering of substitutions follows the chain as printed.

B1: wild type anti-AIP2 antibody E7 (antibody, V domains shown)
VH: EVQLVQSGAEVKKPGASVRVSCKTSGYSFTSYDINWVRQTTGQGLEWMGWVNPTSGSTGYAQKFQGRVTMTANTAINTAYMELRDLRSEDTAVYFCVRDVPFDPWGQGTLVTVSS
VL: QSVLTQPASVSGSPGQSITISCTGTSSDVGKYTFVSWYQQHPGKAPKVMVYEVNKRPLGVSPRFSGSKSGNTAYLTISGLQAEDEADYYCSSYTSSSTVVFGGGTKLTVL
B2: variant anti-AIP2 antibody X12 (antibody, V domains shown)
VH: B1 VH with E1Q, S31V, F102V, L110T
VL: B1 VL with T33L
B3: variant anti-AIP2 antibody X18 (antibody, V domains shown)
VH: B1 VH with F29G, F102V
VL: B1 VL with T94A

What follows are binders tested against Staphylococcus aureus autoinducing peptide-2 (AIP2) (Staphylococcus aureus) (assay: SPR, BiaCore T200).

Row | Binder | Ka | Kd | koff | kon
1 | B1 | 1.85e+07 M⁻¹ | 53.9 nM | 0.027 s⁻¹ | 501000 M⁻¹ s⁻¹
2 | B2 | 1.54e+07 M⁻¹ | 64.9 nM | 0.012 s⁻¹ | 186000 M⁻¹ s⁻¹
3 | B3 | 2.85e+07 M⁻¹ | 35 nM | 0.02 s⁻¹ | 570000 M⁻¹ s⁻¹
